In article PMC5720862 (Developmental cell, 2017):
Where two headings read alike, the source gives them in different places.

T1: DSK2A-HIS (Arabidopsis thaliana, UniProt Q9SII9 1-538)
T1 sequence (looked up): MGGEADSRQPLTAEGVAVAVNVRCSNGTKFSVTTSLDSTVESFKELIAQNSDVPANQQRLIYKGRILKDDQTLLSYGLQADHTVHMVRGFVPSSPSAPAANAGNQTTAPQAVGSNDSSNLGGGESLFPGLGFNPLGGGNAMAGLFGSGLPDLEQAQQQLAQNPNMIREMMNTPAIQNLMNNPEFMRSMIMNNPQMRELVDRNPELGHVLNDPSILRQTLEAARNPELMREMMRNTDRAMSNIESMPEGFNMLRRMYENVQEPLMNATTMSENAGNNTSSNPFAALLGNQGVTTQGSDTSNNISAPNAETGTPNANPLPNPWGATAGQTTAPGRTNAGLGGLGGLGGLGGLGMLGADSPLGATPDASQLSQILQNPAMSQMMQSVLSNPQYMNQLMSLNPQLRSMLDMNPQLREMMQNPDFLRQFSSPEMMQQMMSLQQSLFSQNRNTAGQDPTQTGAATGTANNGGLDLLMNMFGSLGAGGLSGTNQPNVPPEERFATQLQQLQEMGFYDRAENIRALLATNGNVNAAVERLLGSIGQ

T2: DSK2A-MBP (Arabidopsis thaliana, UniProt Q9SII9 1-538)
T2 sequence (looked up): T1 sequence (looked up)

T3: GST-DSK2A (Arabidopsis thaliana, UniProt Q9SII9 1-538)
T3 sequence (looked up): T1 sequence (looked up)

B1: phosphorylated BES1-MBP (natural protein, Arabidopsis thaliana, UniProt Q9LN63 1-335, looked up)
chain: MTSDGATSTSAAAAAAAMATRRKPSWRERENNRRRERRRRAVAAKIYTGLRAQGNYNLPKHCDNNEVLKALCSEAGWVVEEDGTTYRKGHKPLPGDMAGSSSRATPYSSHNQSPLSSTFDSPILSYQVSPSSSSFPSPSRVGDPHNISTIFPFLRNGGIPSSLPPLRISNSAPVTPPVSSPTSRNPKPLPTWESFTKQSMSMAAKQSMTSLNYPFYAVSAPASPTHHRQFHAPATIPECDESDSSTVDSGHWISFQKFAQQQPFSASMVPTSPTFNLVKPAPQQLSPNTAAIQEIGQSSEFKFENSQVKPWEGERIHDVAMEDLELTLGNGKAHS
modifications: phosphorylated in vitro by BIN2-GST (sites not given)
B2: GST-ATG8a (natural protein, Arabidopsis thaliana, UniProt Q8LEM4 1-117, looked up)
chain: MAKSSFKISNPLEARMSESSRIREKYPDRIPVIVEKAGQSDVPDIDKKKYLVPADLTVGQFVYVVRKRIKLGAEKAIFVFVKNTLPPTAALMSAIYEEHKDEDGFLYMTYSGENTFG
B3: GST-ATG8e (natural protein, Arabidopsis thaliana, UniProt Q8S926 1-118, looked up)
chain: MNKGSIFKMDNDFEKRKAEAGRIREKYPDRIPVIVEKAEKSEVPNIDKKKYLVPSDLTVGQFVYVIRKRIKLSAEKAIFIFVDNVLPPTGELMSSVYEDKKDEDGFLYITYSGENTFG
B4: GST-ATG8f (natural protein, Arabidopsis thaliana, UniProt Q8VYK7 1-117, looked up)
chain: MAKSSFKQEHDLEKRRAEAARIREKYPDRIPVIVEKAEKSDIPTIDKKKYLVPADLTVGQFVYVIRKRIKLSAEKAIFIFVDNVLPPAGALMSSVYEEKKDDDGFLYVTYSGENTFG
B5: GST-ATG8i (natural protein, Arabidopsis thaliana, UniProt Q9LRP7 1-115, looked up)
chain: MKSFKEQYTLDERLAESREIIAKYPTRIPVIAEKYCKTDLPAIEKKKFLVPRDMSVGQFIYILSARLHLSPGKALFVFVNNTLPQTAALMDSVYESYKDDDGFVYMCYSSEKTFG
B6: BIN2, recombinant, of the in vitro pull-down with DSK2 (enzyme, Arabidopsis thaliana, UniProt Q39011 1-380, looked up)
chain: MADDKEMPAAVVDGHDQVTGHIISTTIGGKNGEPKQTISYMAERVVGTGSFGIVFQAKCLETGETVAIKKVLQDRRYKNRELQLMRVMDHPNVVCLKHCFFSTTSKDELFLNLVMEYVPESLYRVLKHYSSANQRMPLVYVKLYMYQIFRGLAYIHNVAGVCHRDLKPQNLLVDPLTHQVKICDFGSAKQLVKGEANISYICSRFYRAPELIFGATEYTTSIDIWSAGCVLAELLLGQPLFPGENAVDQLVEIIKVLGTPTREEIRCMNPHYTDFRFPQIKAHPWHKIFHKRMPPEAIDFASRLLQYSPSLRCTALEACAHPFFDELREPNARLPNGRPFPPLFNFKQEVAGSSPELVNKLIPDHIKRQLGLSFLNQSGT
B7: SINAT2-MBP (enzyme, Arabidopsis thaliana, UniProt Q9M2P4 1-308, looked up)
chain: MAPGGSALKEVMESNSTGMDYEVKTAKVEVNNNKPTKPGSAGIGKYGIHSNNGVYELLECPVCTNLMYPPIHQCPNGHTLCSNCKLRVQNTCPTCRYELGNIRCLALEKVAESLEVPCRYQNLGCHDIFPYYSKLKHEQHCRFRPYTCPYAGSECSVTGDIPTLVVHLKDDHKVDMHDGCTFNHRYVKSNPHEVENATWMLTVFNCFGRQFCLHFEAFQLGMAPVYMAFLRFMGDENEAKKFSYSLEVGAHGRKLTWQGIPRSIRDSHRKVRDSQDGLIIPRNLALYFSGGDRQELKLRVTGRIWKEE

What was measured:
Test in all cases: pull-down
[1] = biological target: T1, DSK2A-HIS
[2] = biological target: T2, DSK2A-MBP
[3] = biological target: T2, DSK2A-MBP; remark: listed apart in the source
[4] = biological target: T3, GST-DSK2A

Binder | binding result [2] | further results
B1 |  | binding result [1]: binds
B2 | binds | 
B3 | binds | 
B4 | binds | 
B5 | binds | 
B6 |  | binding result [3]: binds
B7 |  | binding result [4]: binds
